Measured values reported in patent US11406709B2, “Therapeutic and research application of PDCL3” (TRUSTEES OF BOSTON UNIVERSITY, priority 2014, dated 2022).

Experiments:
[1] = tested on: VEGFR-1, CSF-1R and PDGFRβ; assay: Cell-free protein synthesis, rabbit reticulocyte transcription/translation system; type: biochemical; conditions: TNT Quick Coupled Transcription/Translation System
Procedure: FIG. 12A. Schematic of the experiment is shown. FIG. 12B. In vitro translation and transcription was performed as recommended by the manufacturer except in one group recombinant PDCL3 was added into reaction mixture.
To test whether PDCL3 also could increase expression of cell surface receptors in a cell-free protein synthesis system, we tested the effect of PDCL3 in rabbit reticulocyte system.

VEGFR-2 = assay: In vitro transcription/translation of VEGFR-2; type: biochemical
Procedure: FIG. 1A. HEK-293 cells expressing VEGFR-2 were transfected with different concentrations of C-terminus Myc-tagged PDCL3. After 48 hours cells were lysed and whole cell lysates (WCL) were blotted for VEGFR-2, PDCL3 and Hsp70 for loading control. Quantification of premature (newly synthesized and partially glycosylated VEGFR-2 corresponding to lower molecular weight) and mature (fully glycosylated) forms of VEGFR-2 is shown. Mean results of three independent experiments are shown. *P=0.04 and […]. FIG. 1B. Human umbilical vein endothelial cells (HUVECs) were transfected with control siRNA or PDCL3-siRNA. After 48 hours cells serum-starved for overnight followed by stimulation with VEGF for 10 minutes. Cells were lysed and whole cell lysates were blotted for phospho-Y1054-VEGFR-2, total VEGFR-2, PDCL3 and Hsp70 for loading control. FIG. 1C. Thermo-induced aggregation of VEGFR-2 was measured using PSA dye as described in the materials and method section. FIG. 1D. In vitro transcription/translation of VEGFR-2 in the absence or presence of exogenous recombinant PDCL3 was performed as described in the materials and method section and schematic of the procedure is shown. FIG. 1E. In vitro translated VEGFR-2 protein in the absence or presence of exogenous recombinant PDCL3 was blotted for VEGFR-2. FIG. 1F. […]

B1: recombinant PDCL3 protein: exogenous recombinant PDCL3 protein added to in vitro translation; purified GST-PDCL3 in aggregation assay (protein)
chain: MQDPNADTEWNDILRKKGILPPKESLKELEEEAEEEQRILQQSVVKTYEDMTLEELEDHEDEFNEEDERAIEMYRRRRLAEWKATKLKNKFGEVLEISGKDYVQEVTKAGEGLWVILHLYKQGIPLCALINQHLSGLARKFPDVKFIKAISTTCIPNYPDRNLPTIFVYLEGDIKAQFIGPLVFGGMNLTRDELEWKLSESGAIMTDLEENPKKPIEDVLLSSVRRSVLMKRDSDSEGD
modifications: left off: small tags and cut ends
notes: exogenous recombinant PDCL3 protein added to in vitro translation; purified GST-PDCL3 in aggregation assay
- expression of VEGFR-1, CSF-1R and PDGFRβ [1]: significantly increased expression of VEGFR-1, CSF-1R and PDGFRβ
- yield of in vitro translated VEGFR-2 (VEGFR-2): significantly increases the yield of in vitro translated VEGFR-2
